Measurements: article PMC3079738

Biological target: human CD81 expressed on transfected CHO cells (human) (UniProt P60033)
Assay: flow cytometry on cells; CHO cells transfected with human CD81 plasmid (or naive), 5x10^5 cells incubated with crude 293T cell extract containing E2 for 1 h at room temperature in PBS, 2% fetal calf serum, 0.05% NaN3; detected with goat anti-E2 and FITC anti-goat IgG; MFI as percent of wild type E2 on CHO-CD81

UniProt P60033, sequence (P60033 whole entry): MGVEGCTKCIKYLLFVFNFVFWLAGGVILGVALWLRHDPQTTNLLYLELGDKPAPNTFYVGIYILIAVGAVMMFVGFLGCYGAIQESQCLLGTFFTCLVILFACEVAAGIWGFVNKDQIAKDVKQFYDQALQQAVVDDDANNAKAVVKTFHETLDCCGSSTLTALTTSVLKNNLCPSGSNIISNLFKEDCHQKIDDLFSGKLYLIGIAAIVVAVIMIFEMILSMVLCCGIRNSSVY

In the case of “E2-W529/A, mutant of the carboxyl terminal truncated HCV E2 protein (aa 364-661), strain H77 (from UniProt P27958 364-661) (domain or fragment)”, the CD81 binding activity as percent of the wild type protein (MFI) is reported as < 5%.
